Laboratory results taken from paper PMC7934257.

Biological target: D-allulose 3-epimerase (DaeB) from Bacillus sp. KCTC 13219 (Bacillus sp. KCTC 13219)
Experiment: SEC; Superdex 200 Increase 10/300 GL, 50 mM Tris pH 8.0, 300 mM NaCl, 0.5 mL/min; calibrated with ribonuclease A, ovalbumin, conalbumin and aldolase; self-association of purified DaeB

- stoichiometry N: 2
Substance: D-allulose 3-epimerase (DaeB) from Bacillus sp. KCTC 13219 (enzyme)
